Assay [1] addresses T1, Recombinant human MASP1 enzyme (fragment corresponding to amino acids 297-699, C-terminal His Tag) (human, UniProt P48740 297-699).
T1 sequence: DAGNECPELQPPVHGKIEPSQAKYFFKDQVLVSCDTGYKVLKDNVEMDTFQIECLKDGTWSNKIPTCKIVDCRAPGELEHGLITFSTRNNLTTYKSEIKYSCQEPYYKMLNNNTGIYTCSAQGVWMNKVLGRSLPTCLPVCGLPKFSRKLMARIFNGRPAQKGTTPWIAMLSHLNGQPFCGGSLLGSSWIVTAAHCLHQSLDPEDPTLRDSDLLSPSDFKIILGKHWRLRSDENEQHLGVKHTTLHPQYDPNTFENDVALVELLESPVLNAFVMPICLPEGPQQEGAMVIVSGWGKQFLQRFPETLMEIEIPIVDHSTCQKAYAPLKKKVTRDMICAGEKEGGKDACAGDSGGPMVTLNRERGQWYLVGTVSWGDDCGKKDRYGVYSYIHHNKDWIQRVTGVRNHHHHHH
Description: cell-based or functional assay.

For assay [2], the target named is Recombinant human MASP2 enzyme (fragment corresponding to amino acids 297-686, C-terminal His Tag) (human, UniProt O00187 297-686). In words: cell-based or functional assay.
Chain of Recombinant human MASP2 enzyme (fragment corresponding to amino acids 297-686, C-terminal His Tag) (O00187 other isoform, or with tags, fused parts or gaps limits assumed): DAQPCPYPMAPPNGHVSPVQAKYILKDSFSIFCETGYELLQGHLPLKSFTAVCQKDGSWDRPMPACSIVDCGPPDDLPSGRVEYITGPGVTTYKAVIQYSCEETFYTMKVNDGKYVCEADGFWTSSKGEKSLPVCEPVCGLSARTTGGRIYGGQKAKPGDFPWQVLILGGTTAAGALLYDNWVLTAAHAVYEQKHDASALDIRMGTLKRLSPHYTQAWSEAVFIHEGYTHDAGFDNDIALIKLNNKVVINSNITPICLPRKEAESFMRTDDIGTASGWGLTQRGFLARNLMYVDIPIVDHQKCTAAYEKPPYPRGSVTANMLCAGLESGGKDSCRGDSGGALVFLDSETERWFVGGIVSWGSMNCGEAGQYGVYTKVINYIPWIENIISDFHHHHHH

Experimental findings from US20210246166A1 (Bayer, published 2021) are described below.

Bridge positions count the residues as written; N and C are the ends. Square brackets hold non-standard residues; d marks the D form. Ends that are not written are not given here. Oic = O=C(O)[C@@H]1C[C@@H]2CCCC[C@@H]2N1; Nva(3-Et) = CCC(CC)[C@H](N)C(=O)O; tBuAla = CC(C)(C)C[C@H](N)C(=O)O; Chg = N[C@H](C(=O)O)C1CCCCC1; Pen = CC(C)(S)[C@H](N)C(=O)O; 3Amb = NCc1cccc(C(=O)O)c1; NMeC = CN[C@@H](CS)C(=O)O; Nva = CCC[C@H](N)C(=O)O; Ac4c = NC1(C(=O)O)CCC1; PEG2 = NCCOCCOCCC(=O)O; Sar = CNCC(=O)O

B1: aIC+SRSLP-(Oic)-I-(Pen)+IPQ-NH2 (peptide)
peptide: [dA]ICSRSLP[Oic]I[Pen]IPQ-NH2
modifications: disulfide 3-11; N-terminus assumed
SMILES: CC[C@H](C)[C@H](NC(=O)[C@@H](C)N)C(=O)N[C@H]1CSSC(C)(C)[C@@H](C(=O)N[C@H](C(=O)N2CCC[C@H]2C(=O)N[C@@H](CCC(N)=O)C(N)=O)[C@@H](C)CC)NC(=O)[C@H]([C@@H](C)CC)NC(=O)[C@@H]2C[C@@H]3CCCC[C@@H]3N2C(=O)[C@@H]2CCCN2C(=O)[C@H](CC(C)C)NC(=O)[C@H](CO)NC(=O)[C@H](CCCNC(=N)N)NC(=O)[C@H](CO)NC1=O
In the case of B1, the “human MASP1 IC50” value in assay [1] stood at 5.3 nM. Besides, the “human MASP2 IC50” value in assay [2] was 130 nM.

B2: aIC+SRSLP-(Oic)-I-(Pen)+IPE-OH (peptide)
peptide: [dA]ICSRSLP[Oic]I[Pen]IPE-OH
modifications: disulfide 3-11; N-terminus assumed
SMILES: CC[C@H](C)[C@H](NC(=O)[C@@H](C)N)C(=O)N[C@H]1CSSC(C)(C)[C@@H](C(=O)N[C@H](C(=O)N2CCC[C@H]2C(=O)N[C@@H](CCC(=O)O)C(=O)O)[C@@H](C)CC)NC(=O)[C@H]([C@@H](C)CC)NC(=O)[C@@H]2C[C@@H]3CCCC[C@@H]3N2C(=O)[C@@H]2CCCN2C(=O)[C@H](CC(C)C)NC(=O)[C@H](CO)NC(=O)[C@H](CCCNC(=N)N)NC(=O)[C@H](CO)NC1=O
Consider B2, for which, in assay [1], the “human MASP1 IC50” value was found to be 5.3 nM. Moreover, the “human MASP2 IC50” value in assay [2] is 100 nM.

B3: AIC+SRSLPP-(Chg)-(Pen)+IPD-NH2 (peptide)
peptide: AICSRSLPP[Chg][Pen]IPD-NH2
modifications: disulfide 3-11; N-terminus assumed
SMILES: CC[C@H](C)[C@H](NC(=O)[C@H](C)N)C(=O)N[C@H]1CSSC(C)(C)[C@@H](C(=O)N[C@H](C(=O)N2CCC[C@H]2C(=O)N[C@@H](CC(=O)O)C(N)=O)[C@@H](C)CC)NC(=O)[C@H](C2CCCCC2)NC(=O)[C@@H]2CCCN2C(=O)[C@@H]2CCCN2C(=O)[C@H](CC(C)C)NC(=O)[C@H](CO)NC(=O)[C@H](CCCNC(=N)N)NC(=O)[C@H](CO)NC1=O
In the case of B3, in assay [1], the “human MASP1 IC50” value came to 5.7 nM. Further, in assay [2], the “human MASP2 IC50” value was found to be 44 nM.

B4: FIC+SRS-((tBu)A)-PPI-(Pen)+IPD-NH2 (peptide)
peptide: FICSRS[tBuAla]PPI[Pen]IPD-NH2
modifications: disulfide 3-11; N-terminus assumed
SMILES: CC[C@H](C)[C@H](NC(=O)[C@@H](N)Cc1ccccc1)C(=O)N[C@H]1CSSC(C)(C)[C@@H](C(=O)N[C@H](C(=O)N2CCC[C@H]2C(=O)N[C@@H](CC(=O)O)C(N)=O)[C@@H](C)CC)NC(=O)[C@H]([C@@H](C)CC)NC(=O)[C@@H]2CCCN2C(=O)[C@@H]2CCCN2C(=O)[C@H](CC(C)(C)C)NC(=O)[C@H](CO)NC(=O)[C@H](CCCNC(=N)N)NC(=O)[C@H](CO)NC1=O
Turning to B4, the “human MASP1 IC50” value in assay [1] turned out to be 5.8 nM. The “human MASP2 IC50” value in assay [2] worked out at 73 nM.

B5: GIC+SRS-((tBu)A)-P-(Oic)-I-((N-Me)C)+IPD-NH2 (peptide)
peptide: GICSRS[tBuAla]P[Oic]I[NMeC]IPD-NH2
modifications: disulfide 3-11; N-terminus assumed
SMILES: CC[C@H](C)[C@H](NC(=O)CN)C(=O)N[C@H]1CSSC[C@@H](C(=O)N[C@H](C(=O)N2CCC[C@H]2C(=O)N[C@@H](CC(=O)O)C(N)=O)[C@@H](C)CC)N(C)C(=O)[C@H]([C@@H](C)CC)NC(=O)[C@@H]2C[C@@H]3CCCC[C@@H]3N2C(=O)[C@@H]2CCCN2C(=O)[C@H](CC(C)(C)C)NC(=O)[C@H](CO)NC(=O)[C@H](CCCNC(=N)N)NC(=O)[C@H](CO)NC1=O
Turning to B5, the “human MASP1 IC50” value in assay [1] is 6 nM. The “human MASP2 IC50” value in assay [2] was found to be 740 nM.

B6: (3-(Aminomethyl)benzoic acid)-IC+SRS-((tBu)A)-PPI-(Pen)+IP-NH2 (peptide)
peptide: [3Amb]ICSRS[tBuAla]PPI[Pen]IP-NH2
modifications: disulfide 3-11; N-terminus assumed
SMILES: CC[C@H](C)[C@H](NC(=O)c1cccc(CN)c1)C(=O)N[C@H]1CSSC(C)(C)[C@@H](C(=O)N[C@H](C(=O)N2CCC[C@H]2C(N)=O)[C@@H](C)CC)NC(=O)[C@H]([C@@H](C)CC)NC(=O)[C@@H]2CCCN2C(=O)[C@@H]2CCCN2C(=O)[C@H](CC(C)(C)C)NC(=O)[C@H](CO)NC(=O)[C@H](CCCNC(=N)N)NC(=O)[C@H](CO)NC1=O
For the molecule B6, the “human MASP1 IC50” value in assay [1] is 5.4 nM. Moreover, the “human MASP2 IC50” value in assay [2] was determined as 16 nM.

B7: ((N-Me)G)-IC+SRS-((tBu)A)-PPI-(Pen)+IP-(PEG1(10 atoms))-NH2 (peptide)
peptide: [Sar]ICSRS[tBuAla]PPI[Pen]IP[PEG2]-NH2
modifications: disulfide 3-11; N-terminus assumed
SMILES: CC[C@H](C)[C@H](NC(=O)CNC)C(=O)N[C@H]1CSSC(C)(C)[C@@H](C(=O)N[C@H](C(=O)N2CCC[C@H]2C(=O)NCCOCCOCCC(N)=O)[C@@H](C)CC)NC(=O)[C@H]([C@@H](C)CC)NC(=O)[C@@H]2CCCN2C(=O)[C@@H]2CCCN2C(=O)[C@H](CC(C)(C)C)NC(=O)[C@H](CO)NC(=O)[C@H](CCCNC(=N)N)NC(=O)[C@H](CO)NC1=O
For the molecule B7, the “human MASP1 IC50” value in assay [1] worked out at 5.7 nM. Moreover, the “human MASP2 IC50” value in assay [2] amounted to 74 nM.

B8: AIC+SRSLPP-((S)-2-amino-3-ethyl-pentanoic acid)-C+IPD-NH2 (peptide)
peptide: AICSRSLPP[Nva(3-Et)]CIPD-NH2
modifications: disulfide 3-11; N-terminus assumed
SMILES: CCC(CC)[C@@H]1NC(=O)[C@@H]2CCCN2C(=O)[C@@H]2CCCN2C(=O)[C@H](CC(C)C)NC(=O)[C@H](CO)NC(=O)[C@H](CCCNC(=N)N)NC(=O)[C@H](CO)NC(=O)[C@@H](NC(=O)[C@@H](NC(=O)[C@H](C)N)[C@@H](C)CC)CSSC[C@@H](C(=O)N[C@H](C(=O)N2CCC[C@H]2C(=O)N[C@@H](CC(=O)O)C(N)=O)[C@@H](C)CC)NC1=O
As for B8, in assay [1], the “human MASP1 IC50” value was 5.8 nM. In addition, in assay [2], the “human MASP2 IC50” value stood at 51 nM.

B9: A-(Nva)-C+SRS-((tBu)A)-PPI-(Pen)+IPD-NH2 (peptide)
peptide: A[Nva]CSRS[tBuAla]PPI[Pen]IPD-NH2
modifications: disulfide 3-11; N-terminus assumed
SMILES: CCC[C@H](NC(=O)[C@H](C)N)C(=O)N[C@H]1CSSC(C)(C)[C@@H](C(=O)N[C@H](C(=O)N2CCC[C@H]2C(=O)N[C@@H](CC(=O)O)C(N)=O)[C@@H](C)CC)NC(=O)[C@H]([C@@H](C)CC)NC(=O)[C@@H]2CCCN2C(=O)[C@@H]2CCCN2C(=O)[C@H](CC(C)(C)C)NC(=O)[C@H](CO)NC(=O)[C@H](CCCNC(=N)N)NC(=O)[C@H](CO)NC1=O
Regarding B9, the “human MASP1 IC50” value in assay [1] came to 5.2 nM. The “human MASP2 IC50” value in assay [2] was found to be 19 nM.

B10: ((N-Me)G)-IC+SRSLP-(Oic)-I-(Pen)+IPQ-OH (peptide)
peptide: [Sar]ICSRSLP[Oic]I[Pen]IPQ-OH
modifications: disulfide 3-11; N-terminus assumed
SMILES: CC[C@H](C)[C@H](NC(=O)CNC)C(=O)N[C@H]1CSSC(C)(C)[C@@H](C(=O)N[C@H](C(=O)N2CCC[C@H]2C(=O)N[C@@H](CCC(N)=O)C(=O)O)[C@@H](C)CC)NC(=O)[C@H]([C@@H](C)CC)NC(=O)[C@@H]2C[C@@H]3CCCC[C@@H]3N2C(=O)[C@@H]2CCCN2C(=O)[C@H](CC(C)C)NC(=O)[C@H](CO)NC(=O)[C@H](CCCNC(=N)N)NC(=O)[C@H](CO)NC1=O
With B10, in assay [1], the “human MASP1 IC50” value was 5.4 nM. In addition, the “human MASP2 IC50” value in assay [2] turned out to be 170 nM.

B11: (ACBA)-IC+SRS-((tBu)A)-PPI-(Pen)+I-NH2 (peptide)
peptide: [Ac4c]ICSRS[tBuAla]PPI[Pen]I-NH2
modifications: disulfide 3-11; N-terminus assumed
SMILES: CC[C@H](C)[C@H](NC(=O)[C@H]1NC(=O)[C@H]([C@@H](C)CC)NC(=O)[C@@H]2CCCN2C(=O)[C@@H]2CCCN2C(=O)[C@H](CC(C)(C)C)NC(=O)[C@H](CO)NC(=O)[C@H](CCCNC(=N)N)NC(=O)[C@H](CO)NC(=O)[C@@H](NC(=O)[C@@H](NC(=O)C2(N)CCC2)[C@@H](C)CC)CSSC1(C)C)C(N)=O
In the case of B11, the “human MASP1 IC50” value in assay [1] was 5.7 nM. In assay [2], the “human MASP2 IC50” value turned out to be 15 nM.

B12: ((N-Me)G)-IC+SRSLP-(Oic)-I-(Pen)+IPQ-NH2 (peptide)
peptide: [Sar]ICSRSLP[Oic]I[Pen]IPQ-NH2
modifications: disulfide 3-11; N-terminus assumed
SMILES: CC[C@H](C)[C@H](NC(=O)CNC)C(=O)N[C@H]1CSSC(C)(C)[C@@H](C(=O)N[C@H](C(=O)N2CCC[C@H]2C(=O)N[C@@H](CCC(N)=O)C(N)=O)[C@@H](C)CC)NC(=O)[C@H]([C@@H](C)CC)NC(=O)[C@@H]2C[C@@H]3CCCC[C@@H]3N2C(=O)[C@@H]2CCCN2C(=O)[C@H](CC(C)C)NC(=O)[C@H](CO)NC(=O)[C@H](CCCNC(=N)N)NC(=O)[C@H](CO)NC1=O
On to B12, for which the “human MASP1 IC50” value in assay [1] turned out to be 5.2 nM. Moreover, the “human MASP2 IC50” value in assay [2] came to 190 nM.

B13: AIC+SRS-((tBu)A)-PPIC+IDD-OH (peptide)
peptide: AICSRS[tBuAla]PPICIDD-OH
modifications: disulfide 3-11; N-terminus assumed
SMILES: CC[C@H](C)[C@H](NC(=O)[C@H](C)N)C(=O)N[C@H]1CSSC[C@@H](C(=O)N[C@H](C(=O)N[C@@H](CC(=O)O)C(=O)N[C@@H](CC(=O)O)C(=O)O)[C@@H](C)CC)NC(=O)[C@H]([C@@H](C)CC)NC(=O)[C@@H]2CCCN2C(=O)[C@@H]2CCCN2C(=O)[C@H](CC(C)(C)C)NC(=O)[C@H](CO)NC(=O)[C@H](CCCNC(=N)N)NC(=O)[C@H](CO)NC1=O
Regarding B13, the “human MASP1 IC50” value in assay [1] was 5.8 nM. In addition, the “human MASP2 IC50” value in assay [2] was determined as 61 nM.
